Patent US11203633B2, “Polynucleotides encoding antibodies or antigen binding fragments thereof that bind pseudomonas perv” (priority 2011, dated 2021)

Experiments:
rPcrV protein = test: Binding kinetics, Bio-Rad ProteOn XPR36; parameters: species or system Pseudomonas aeruginosa; conditions: antibody captured, rPcrV injected; FIG. 12G-H
Procedure: Binding kinetics of V2L2-GL and V2L2-MD were measured using a Bio-Rad ProteOn™ XPR36 instrument. Antibodies were captured on a GLC bisensor chip using anti-human IgG reagents. rPcrV protein was injected at multiple concentrations and the dissociation phase followed for 600 seconds. Data was captured and analyzed using ProteOn Manager software. […] The clone V2L2-MD had increased Kd by 2-3 folds over V2L2-GL.

[1] = test system: P. aeruginosa (6077 exoU+; 6206) lysis of rabbit red blood cells; test: Rabbit red blood cell (RBC) lysis inhibition assay; type: cell-based, Pseudomonas aeruginosa; conditions: strain 6077; FIG. 12D-E
Procedure: Percent inhibition of cytotoxicity analysis was analysed for the parental V2L2 mAb, mAb166 (positive control) and R347 (negative control), where the antibodies were administered to cultured broncho-epithelial cell line A549 combined with log-phase P. aeruginosa strain 6077 (exoU+) at a MOI of approximately 10. A549 lysis was assayed by measuring released lactate dehydrogenase (LDH) activity and lysis in the presence of mAbs was compared to wells without mAb to determine percent inhibition. The V2L2 mAb, mAb166 (positive control) and R347 (negative control) were evaluated for their ability to prevent lysis of RBCs, where the antibodies were mixed with log-phase P. aeruginosa 6077 (exoU^+) and washed rabbit red blood cells (RBCs) and incubated for 2 hours at 37°. Intact RBCs were pelleted and the extent of lysis determined by measuring the OD405 of the cell-free supernatant. Lysis in the presence of anti-PcrV mAbs was compared to wells without mAb to determine percent inhibition. The positive control antibody, mAb166, is a previously characterized anti-PcrV antibody (J Infect Dis. 186: 64-73 (2002), Crit Care Med. 40: 2320-2326 (2012)).

B1: V2L2-MD: optimized V2L2-GL mAb; germlined lead optimized anti-PcrV antibody (antibody, V domains shown)
VH: EMQLLESGGGLVQPGGSLRLSCAASGFTFSSYAMNWVRQAPGEGLEWVSAITISGITAYYTDSVKGRFTISRDNSKNTLYLQMNSLRAGDTAVYYCAKEEFLPGTHYYYGMDVWGQGTTVTVSS
VL: AIQMTQSPSSLSASVGDRVTITCRASQGIRNDLGWYQQKPGKAPKLVIYSASTLQSGVPSRFSGSGSGTDFTLSISSLQPDDFATYYCLQDYNYPWTFGQGTKVEIK
modifications: V2L2-MD VH; V2L2-MD and V2L2-GL VL
change of Kd over V2L2-GL (rPcrV protein): 2-3 folds
prevention of RBC lysis [1]: demonstrated prevention of RBC lysis
